Measurements from publication PMC11315935, “Multi-layered heterochromatin interaction as a switch for DIM2-mediated DNA methylation” (Nature Communications, 2024).

B1: DIM2W261A/W581A: DIM2 with W261A/W581A double mutation (protein)
chain: MDSPDRSHGGMFIDVPAETMGFQEDYLDMFASVLSQGLAKEGDYAHHQPLPAGKEECLEPIAVATTITPSPDDPQLQLQLELEQQFQTESGLNGVDPAPAPESEDEADLPDGFSDESPDDDFVVQRSKHITVDLPVSTLINPRSTFQRIDENDNLVPPPQSTPERVAVEDLLKAAKAAGKNKEDYIEFELHDFNFYVNYAYHPQEMRPIQLVATKVLHDKYYFDGVLKYGNTKHYVTGMQVLELPVGNYGASLHSVKGQIAVRSKHNAKKEIYYLLKKPAFEYQRYYQPFLWIADLGKHVVDYCTRMVERKREVTLGCFKSDFIQWASKAHGKSKAFQNWRAQHPSDDFRTSVAANIGYIWKEINGVAGAKRAAGDQLFRELMIVKPGQYFRQEVPPGPVVTEGDRTVAATIVTPYIKECFGHMILGKVLRLAGEDAEKEKEVKLAKRLKIENKNATKADTKDDMKNDTATESLPTPLRSLPVQVLEATPIESDIVSIVSSDLPPSENNPPPLTNGSVKPKAKANPKPKPSTQPLHAAHVKYLSQELVNKIKVGDVISTPRDDSSNTDTKWKPTDTDDHRAFGLVQRVHTAKTKSSGRGLNSKSFDVIWFYRPEDTPCCAMKYKWRNELFLSNHCTCQEGHHARVKGNEVLAVHPVDWFGTPESNKGEFFVRQLYESEQRRWITLQKDHLTCYHNQPPKPPTAPYKPGDTVLATLSPSDKFSDPYEVVEYFTQGEKETAFVRLRKLLRRRKVDRQDAPANELVYTEDLVDVRAERIVGKCIMRCFRPDERVPSPYDRGGTGNMFFITHRQDHGRCVPLDTLPPTLRQGFNPLGNLGKPKLRGMDLYCGGGNFGRGLEEGGVVEMRWANDIWDKAIHTYMANTPDPNKTNPFLGSVDDLLRLALEGKFSDNVPRPGEVDFIAAGSPCPGFSLLTQDKKVLNQVKNQSLVASFASFVDFYRPKYGVLENVSGIVQTFVNRKQDVLSQLFCALVGMGYQAQLILGDAWAHGAPQSRERVFLYFAAPGLPLPDPPLPSHSHYRVKNRNIGFLCNGESYVQRSFIPTAFKFVSAGEGTADLPKIGDGKPDACVRFPDHRLASGITPYIRAQYACIPTHPYGMNFIKAWNNGNGVMSKSDRDLFPSEGKTRTSDASVGWKRLNPKTLFPTVTTTSNPSDARMGPGLHWDEDRPYTVQEMRRAQGYLDEEVLVGRTTDQWKLVGNSVSRHMALAIGLKFREAWLGTLYD
modifications: left off: His6, N-terminal, cleaved | MBP, N-terminal, cleaved
notes: DIM2 with W261A/W581A double mutation
B2: DIM2N1050A: DIM2 with mutation in the bridging loop (N1050A) (protein)
chain: MDSPDRSHGGMFIDVPAETMGFQEDYLDMFASVLSQGLAKEGDYAHHQPLPAGKEECLEPIAVATTITPSPDDPQLQLQLELEQQFQTESGLNGVDPAPAPESEDEADLPDGFSDESPDDDFVVQRSKHITVDLPVSTLINPRSTFQRIDENDNLVPPPQSTPERVAVEDLLKAAKAAGKNKEDYIEFELHDFNFYVNYAYHPQEMRPIQLVATKVLHDKYYFDGVLKYGNTKHYVTGMQVLELPVGNYGASLHSVKGQIWVRSKHNAKKEIYYLLKKPAFEYQRYYQPFLWIADLGKHVVDYCTRMVERKREVTLGCFKSDFIQWASKAHGKSKAFQNWRAQHPSDDFRTSVAANIGYIWKEINGVAGAKRAAGDQLFRELMIVKPGQYFRQEVPPGPVVTEGDRTVAATIVTPYIKECFGHMILGKVLRLAGEDAEKEKEVKLAKRLKIENKNATKADTKDDMKNDTATESLPTPLRSLPVQVLEATPIESDIVSIVSSDLPPSENNPPPLTNGSVKPKAKANPKPKPSTQPLHAAHVKYLSQELVNKIKVGDVISTPRDDSSNTDTKWKPTDTDDHRWFGLVQRVHTAKTKSSGRGLNSKSFDVIWFYRPEDTPCCAMKYKWRNELFLSNHCTCQEGHHARVKGNEVLAVHPVDWFGTPESNKGEFFVRQLYESEQRRWITLQKDHLTCYHNQPPKPPTAPYKPGDTVLATLSPSDKFSDPYEVVEYFTQGEKETAFVRLRKLLRRRKVDRQDAPANELVYTEDLVDVRAERIVGKCIMRCFRPDERVPSPYDRGGTGNMFFITHRQDHGRCVPLDTLPPTLRQGFNPLGNLGKPKLRGMDLYCGGGNFGRGLEEGGVVEMRWANDIWDKAIHTYMANTPDPNKTNPFLGSVDDLLRLALEGKFSDNVPRPGEVDFIAAGSPCPGFSLLTQDKKVLNQVKNQSLVASFASFVDFYRPKYGVLENVSGIVQTFVNRKQDVLSQLFCALVGMGYQAQLILGDAWAHGAPQSRERVFLYFAAPGLPLPDPPLPSHSHYRVKNRNIGFLCAGESYVQRSFIPTAFKFVSAGEGTADLPKIGDGKPDACVRFPDHRLASGITPYIRAQYACIPTHPYGMNFIKAWNNGNGVMSKSDRDLFPSEGKTRTSDASVGWKRLNPKTLFPTVTTTSNPSDARMGPGLHWDEDRPYTVQEMRRAQGYLDEEVLVGRTTDQWKLVGNSVSRHMALAIGLKFREAWLGTLYD
modifications: left off: His6, N-terminal, cleaved | MBP, N-terminal, cleaved
B3: DIM2E649A: DIM2 with mutation in the BAH1 domain (E649A) (protein)
chain: MDSPDRSHGGMFIDVPAETMGFQEDYLDMFASVLSQGLAKEGDYAHHQPLPAGKEECLEPIAVATTITPSPDDPQLQLQLELEQQFQTESGLNGVDPAPAPESEDEADLPDGFSDESPDDDFVVQRSKHITVDLPVSTLINPRSTFQRIDENDNLVPPPQSTPERVAVEDLLKAAKAAGKNKEDYIEFELHDFNFYVNYAYHPQEMRPIQLVATKVLHDKYYFDGVLKYGNTKHYVTGMQVLELPVGNYGASLHSVKGQIWVRSKHNAKKEIYYLLKKPAFEYQRYYQPFLWIADLGKHVVDYCTRMVERKREVTLGCFKSDFIQWASKAHGKSKAFQNWRAQHPSDDFRTSVAANIGYIWKEINGVAGAKRAAGDQLFRELMIVKPGQYFRQEVPPGPVVTEGDRTVAATIVTPYIKECFGHMILGKVLRLAGEDAEKEKEVKLAKRLKIENKNATKADTKDDMKNDTATESLPTPLRSLPVQVLEATPIESDIVSIVSSDLPPSENNPPPLTNGSVKPKAKANPKPKPSTQPLHAAHVKYLSQELVNKIKVGDVISTPRDDSSNTDTKWKPTDTDDHRWFGLVQRVHTAKTKSSGRGLNSKSFDVIWFYRPEDTPCCAMKYKWRNELFLSNHCTCQEGHHARVKGNAVLAVHPVDWFGTPESNKGEFFVRQLYESEQRRWITLQKDHLTCYHNQPPKPPTAPYKPGDTVLATLSPSDKFSDPYEVVEYFTQGEKETAFVRLRKLLRRRKVDRQDAPANELVYTEDLVDVRAERIVGKCIMRCFRPDERVPSPYDRGGTGNMFFITHRQDHGRCVPLDTLPPTLRQGFNPLGNLGKPKLRGMDLYCGGGNFGRGLEEGGVVEMRWANDIWDKAIHTYMANTPDPNKTNPFLGSVDDLLRLALEGKFSDNVPRPGEVDFIAAGSPCPGFSLLTQDKKVLNQVKNQSLVASFASFVDFYRPKYGVLENVSGIVQTFVNRKQDVLSQLFCALVGMGYQAQLILGDAWAHGAPQSRERVFLYFAAPGLPLPDPPLPSHSHYRVKNRNIGFLCNGESYVQRSFIPTAFKFVSAGEGTADLPKIGDGKPDACVRFPDHRLASGITPYIRAQYACIPTHPYGMNFIKAWNNGNGVMSKSDRDLFPSEGKTRTSDASVGWKRLNPKTLFPTVTTTSNPSDARMGPGLHWDEDRPYTVQEMRRAQGYLDEEVLVGRTTDQWKLVGNSVSRHMALAIGLKFREAWLGTLYD
modifications: left off: His6, N-terminal, cleaved | MBP, N-terminal, cleaved
B4: DIM2K362A: DIM2 with H3K9me3-binding site mutation in the RFTS domain (K362A) (protein)
chain: MDSPDRSHGGMFIDVPAETMGFQEDYLDMFASVLSQGLAKEGDYAHHQPLPAGKEECLEPIAVATTITPSPDDPQLQLQLELEQQFQTESGLNGVDPAPAPESEDEADLPDGFSDESPDDDFVVQRSKHITVDLPVSTLINPRSTFQRIDENDNLVPPPQSTPERVAVEDLLKAAKAAGKNKEDYIEFELHDFNFYVNYAYHPQEMRPIQLVATKVLHDKYYFDGVLKYGNTKHYVTGMQVLELPVGNYGASLHSVKGQIWVRSKHNAKKEIYYLLKKPAFEYQRYYQPFLWIADLGKHVVDYCTRMVERKREVTLGCFKSDFIQWASKAHGKSKAFQNWRAQHPSDDFRTSVAANIGYIWAEINGVAGAKRAAGDQLFRELMIVKPGQYFRQEVPPGPVVTEGDRTVAATIVTPYIKECFGHMILGKVLRLAGEDAEKEKEVKLAKRLKIENKNATKADTKDDMKNDTATESLPTPLRSLPVQVLEATPIESDIVSIVSSDLPPSENNPPPLTNGSVKPKAKANPKPKPSTQPLHAAHVKYLSQELVNKIKVGDVISTPRDDSSNTDTKWKPTDTDDHRWFGLVQRVHTAKTKSSGRGLNSKSFDVIWFYRPEDTPCCAMKYKWRNELFLSNHCTCQEGHHARVKGNEVLAVHPVDWFGTPESNKGEFFVRQLYESEQRRWITLQKDHLTCYHNQPPKPPTAPYKPGDTVLATLSPSDKFSDPYEVVEYFTQGEKETAFVRLRKLLRRRKVDRQDAPANELVYTEDLVDVRAERIVGKCIMRCFRPDERVPSPYDRGGTGNMFFITHRQDHGRCVPLDTLPPTLRQGFNPLGNLGKPKLRGMDLYCGGGNFGRGLEEGGVVEMRWANDIWDKAIHTYMANTPDPNKTNPFLGSVDDLLRLALEGKFSDNVPRPGEVDFIAAGSPCPGFSLLTQDKKVLNQVKNQSLVASFASFVDFYRPKYGVLENVSGIVQTFVNRKQDVLSQLFCALVGMGYQAQLILGDAWAHGAPQSRERVFLYFAAPGLPLPDPPLPSHSHYRVKNRNIGFLCNGESYVQRSFIPTAFKFVSAGEGTADLPKIGDGKPDACVRFPDHRLASGITPYIRAQYACIPTHPYGMNFIKAWNNGNGVMSKSDRDLFPSEGKTRTSDASVGWKRLNPKTLFPTVTTTSNPSDARMGPGLHWDEDRPYTVQEMRRAQGYLDEEVLVGRTTDQWKLVGNSVSRHMALAIGLKFREAWLGTLYD
modifications: left off: His6, N-terminal, cleaved | MBP, N-terminal, cleaved

Tested on: (CTA)12/(TAG)12 36-mer DNA duplex
Assay: In vitro DNA methylation assay of DIM2 (WT or mutant)
Format: biochemical
Set-up: DNA methylation activity: unit not given here
Conditions: 30 min, pH 8.0; for DNA methylation activity of DIM2 (in words): 1.0 µM DIM2, 30 °C; for DNA methylation activity: Fig. 6d, H3_1-24K9me3 binding-associated mutants, 1.0 µM DIM2, 1.0 µM DNA duplex, 30 °C

Row | Molecule | DNA methylation activity of DIM2 (in words) | DNA methylation activity (replicate 1) | DNA methylation activity (replicate 2) | DNA methylation activity (replicate 3)
1 | B1 | largely abolished the DNA methylation activity | 0.373 | 0.344 | 0.323
2 | B2 | marked decrease of the DNA methylation activity | 5.118 | 5.385 | 5.072
3 | B3 | marked decrease of the DNA methylation activity | 3.26 | 3.183 | 3.28
4 | B4 | marked decrease of the DNA methylation activity | 1.971 | 1.588 | 1.581
